Results as given in US20240150440A1 (LUMEN BIOSCIENCE, published 2024).

B1: PP914 MBP-5HVZ-S3a-H1-H6 (VHH)
VHH: QVQLVESGGGLVQPGGSLRLSCAASGGIYSPYSMHWFRQAPGKAREWVAGIVGGGGTTYSDSVKGRFTISRDNAKNTVYLQMNSLKPEDTAVYYCNANYQEYDEYDYWGQGTQVTVSS
notes: Form: Dimer
B2: PP901 MBP-5HVZ-R1e-B2-H6 (VHH)
VHH: QVQLVESGGGLVQPGGSLRLSCAASGQITAENYMHWYRQAPGKQREWVAAITTGGSTLYADSVKGRFTISRDNAKNTVYLQMNSLKPEDTAVYYCNADRSYFPDYWGQGTQVTVSS
notes: Form: Dimer
B3: PP916 MBP-5HVZ-S3b-A8-H6 (VHH)
VHH: QVQLVESGGGLVQPGGSLRLSCAASGSIISRVKVHWFRQAPGKSREWVAGIDSGTASYYSDSVKGRFTISRDNAKNTVYLQMNSLKPEDTAVYYCAAENRGYGVDWGQGTQVTVSS
notes: Form: Dimer
B4: PP888 MBP-S1b-E11-H6 (VHH)
VHH: QVQLVESGGGLVQPGGSLRLSCAASGSYASIASMHWFRQAPGKEREFVAGVTSGGSTNYGDSVKGRFTISRDNAKNTVYLQMNSLKPEDTAVYYCNALAGANYESQWEEYNYWGQGTQVTVSS
notes: Form: Monomer
B5: PP907 MBP-5HVZ-S1b-E11-H6 (VHH)
VHH: QVQLVESGGGLVQPGGSLRLSCAASGSYASIASMHWFRQAPGKEREFVAGVTSGGSTNYGDSVKGRFTISRDNAKNTVYLQMNSLKPEDTAVYYCNALAGANYESQWEEYNYWGQGTQVTVSS
notes: Form: Dimer
B6: PP913 MBP-5HVZ-S3a-C5-H6 (VHH)
VHH: QVQLVESGGGLVQPGGSLRLSCAASGSIKNTNAMHWFRQAPGKDREWVAGITSGGNSNYGDSVKGRFTISRDNAKNTVYLQMNSLKPEDTAVYYCAAFGYRYDQDYTYDYWGQGTQVTVSS
notes: Form: Dimer
B7: PP884 MBP-R1i-A11-H6 (VHH)
VHH: QVQLVESGGGLVQPGGSLRLSCAASGSILQINAIHWFRQAPGKQREEVAAITSGGSTGYADSVKGRFTISRDNAKNTVYLQMNSLKPEDTAVYYCAATSTRGGLDSDYWGQGTQVTVSS
notes: Form: Monomer
B8: PP922 MBP-R5a-F5-H6 (VHH)
VHH: QVQLVESGGGLVQPGGSLRLSCAASGYHASILAMHWVRQAPGKEREWVASMTWSDMTQYSDSVKGRFTISRDNAKNTVYLQMNSLKPEDTAVYYCAATYVTRDRPWTHWGQGTQVTVSS
notes: Form: Monomer
B9: PP788 (VHH, not shown: large carriers; small tags and cut ends)
VHH: QVQLVESGGGLVQPGGSLRLSCAASGSIESINAIHWFRQAPGKAREEVAAITENDVDYYADSVKGRFTISRDNAKNTVYLQMNSLKPEDTAVYYCASLSSGYQYVGFRYWGQGTQVTVSS
B10: PP881 MBP-R5a-F2-H6 (VHH)
VHH: QVQLVESGGGLVQPGGSLRLSCAASGSISSIEAMSWFRQAPGKQREGVATMASGGDTSYADSVKGRFTISRDNAKNTVYLQMNSLKPEDTAVYYCAAQTYRPDTWGRYTFWGQGTQVTVSS
notes: Form: Monomer
B11: PP1141 MBP-4B0F-PAPA-R5d-D4-H6 (VHH)
VHH: QVQLVESGGGLVQPGGSLRLSCAASGSDFTINAMHWFRQAPGKQREFVATITSTSSTAYRDSVKGRFTISRDNAKNTVYLQMNSLKPEDTAVYYCAAFAVRDADTAGWTARDYWGQGTQVTVSS
notes: Form: Heptamer
B12: PP880 MBP-R5a-B5-H6 (VHH)
VHH: QVQLVESGGGLVQPGGSLRLSCAASGDDFIENAISWYRQAPGKGREWVAAVTLGGHSNYADSVKGRFTISRDNAKNTVYLQMNSLKPEDTAVYYCNYPVGIPAVAIDGRRSYGYWGQGTQVTVSS
notes: Form: Monomer
B13: PP886 MBP-S1a-C4-H6 (VHH)
VHH: QVQLVESGGGLVQPGGSLRLSCAASGSRDSINTAHWYRQAPGKAREWVASLDNSTTGSYADSVKGRFTISRDNAKNTVYLQMNSLKPEDTAVYYCAAVTGTPGGLGFYDYWGQGTQVTVSS
B14: PP905 MBP-5HVZ-S1a-C4-H6 (VHH)
VHH: QVQLVESGGGLVQPGGSLRLSCAASGSRDSINTAHWYRQAPGKAREWVASLDNSTTGSYADSVKGRFTISRDNAKNTVYLQMNSLKPEDTAVYYCAAVTGTPGGLGFYDYWGQGTQVTVSS
notes: Form: Dimer
B15: PP887 MBP-S1b-E7-H6 (VHH)
VHH: QVQLVESGGGLVQPGGSLRLSCAASGGEFSDNGLHWFRQAPGKQREFVATASSDGSTQYRDSVKGRFTISRDNAKNTVYLQMNSLKPEDTAVYYCTALLMSSAGEYDVWGQGTQVTVSS
notes: Form: Monomer
B16: PP1115 MBP-5HVZ-PAPA-RN-31-H6 (VHH)
VHH: QVQLVESGGGLVQPGGSLRLSCAASGSTGSDYAMHWFRQAPGKDREWVAGISSYGSDSYGDSVKGRFTISRDNAKNTVYLQMNSLKPEDTAVYYCAALQASAGAGYYYDYWGQGTQVTVSS
notes: Form: Dimer
B17: PP928 MBP-5HVZ-R1i-E7-H6 (VHH)
VHH: QVQLVESGGGLVQPGGSLRLSCAASGTEYDISAAHWYRQAPGKQREWVAGVTSDNSTFYADSVKGRFTISRDNAKNTVYLQMNSLKPEDTAVYYCTATVKTSQYRYWGQGTQVTVSS
B18: PP1177 MPB-scTRP-PAPA-R2a-F3-H6 (VHH)
VHH: QVQLVESGGGLVQPGGSLRLSCAASGSITSINWMHWFRQAPGKDREGVASISQTGRGSYADSVKGRFTISRDNAKNTVYLQMNSLKPEDTAVYYCAAASRTGTPYNYWGQGTQVTVSS
notes: Form: Trimer
B19: PP806 MBP-R2B-E6-H6 (VHH)
VHH: QVQLVESGGGLVQPGGSLRLSCAASGGVTRGNAMAWYRQAPGKQREIVAAIDNGGSHAYGDSVKGRFTISRDNAKNTVYLQMNSLKPEDTAVYYCAVFPDHDSEQASIDRVYWGQGTQVTVSS
notes: Form: Monomer
B20: PP883 MBP-R1e-D4-H6 (VHH)
VHH: QVQLVESGGGLVQPGGSLRLSCAASGSIREINAMHWVRQAPGKGRELVASIDSGSLDYYADSVKGRFTISRDNAKNTVYLQMNSLKPEDTAVYYCAASRSGDYRYWGQGTQVTVSS
notes: Form: Monomer
B21: PP902 MBP-5HVZ-R1e-D4-H6 (VHH)
VHH: QVQLVESGGGLVQPGGSLRLSCAASGSIREINAMHWVRQAPGKGRELVASIDSGSLDYYADSVKGRFTISRDNAKNTVYLQMNSLKPEDTAVYYCAASRSGDYRYWGQGTQVTVSS
notes: Form: Dimer
B22: PP911 MBP-5HVZ-S2b-F7-H6 (VHH)
VHH: QVQLVESGGGLVQPGGSLRLSCAASGSTLSNNAMHWFRQAPGKAREFVAAIGSSDSTDYKDSVKGRFTISRDNAKNTVYLQMNSLKPEDTAVYYCTALLDSGPGEYNYWGQGTQVTVSS
notes: Form: Dimer
B23: PP1108 MBP-5HVZ-PAPA-RN-23-H6 (VHH)
VHH: QVQLVESGGGLVQPGGSLRLSCAASGGEKSISAAHWYRQAPGKEREFVAAITAASTTSYADSVKGRFTISRDNAKNTVYLQMNSLKPEDTAVYYCTAVLYDSYDYWGQGTQVTVSS
notes: Form: Dimer
B24: PP1096 MBP-5HVZ-PAPA-RN-3-H6 (VHH)
VHH: QVQLVESGGGLVQPGGSLRLSCAASGFEFTYRAVHWFRQAPGKGREWVAGVVSGGSTYYADSVKGRFTISRDNAKNTVYLQMNSLKPEDTAVYYCNAGPQAEEDTYDYWGQGTQVTVSS
B25: PP910 MBP-5HVZ-S2b-C10-H6 (VHH)
VHH: QVQLVESGGGLVQPGGSLRLSCAASGSAFSLNYMAWFRQAPGKQREGVAIIGSGGSSDYADSVKGRFTISRDNAKNTVYLQMNSLKPEDTAVYYCAAQPNGSPDDFDYWGQGTQVTVSS
notes: Form: Dimer
B26: PP885 MBP-R5b-C5-H6 (VHH)
VHH: QVQLVESGGGLVQPGGSLRLSCAASGSPFKTQTVHWFRQAPGKGREWVASITSGSGTQYMDSVKGRFTISRDNAKNTVYLQMNSLKPEDTAVYYCAAANDGYGVDWGQGTQVTVSS
notes: Form: Monomer
B27: PP904 MBP-5HVZ-R5b-C5-H6 (VHH)
VHH: QVQLVESGGGLVQPGGSLRLSCAASGSPFKTQTVHWFRQAPGKGREWVASITSGSGTQYMDSVKGRFTISRDNAKNTVYLQMNSLKPEDTAVYYCAAANDGYGVDWGQGTQVTVSS
notes: Form: Dimer
B28: PP823 MBP-R5B-C3-H6 (VHH)
VHH: QVQLVESGGGLVQPGGSLRLSCAASGGISVANVMHWFRQAPGKEREGVAGLTSEGSRYYADSVKGRFTISRDNAKNTVYLQMNSLKPEDTAVYYCAAEPTGNTHEFEYWGQGTQVTVSS
B29: PP1114 MBP-5HVZ-PAPA-RN-30-H6 (VHH)
VHH: QVQLVESGGGLVQPGGSLRLSCAASGIPASYLNMHWFRQAPGKQREWVAGAGGTNSNYYQDSVKGRFTISRDNAKNTVYLQMNSLKPEDTAVYYCAALDGAESYDYVYPVWGQGTQVTVSS
notes: Form: Dimer

Experiments:
[1] = biological target: T1, SARS-CoV-2 Alpha Variant RBD (SARS-CoV-2 Alpha variant); assay: ELISA, RBD coated
T1 construct: domain: RBD; coated on ELISA plates

[2] = biological target: T2, SARS-CoV-2 Gamma Variant RBD (SARS-CoV-2 Gamma variant); assay: ELISA, RBD coated
T2 construct: domain: RBD; coated on ELISA plates

[3] = biological target: T3, SARS-CoV-2 Beta Variant RBD (SARS-CoV-2 Beta variant); assay: ELISA, RBD coated
T3 construct: domain: RBD; coated on ELISA plates

[4] = biological target: SARS-CoV-2 spike protein on pseudotyped lentivirus (Wuhan Reference Pseudovirus) (SARS-CoV-2, UniProt P0DTC2 14-1273); assay: cell-based or functional assay

| Binder | EC50 [1] | EC50 [2] | EC50 [3] | infectivity % under 10 ug/mL VHH treatment [4] |
| --- | --- | --- | --- | --- |
| B1 | 2.94 nM | 10.5 nM | 19.4 nM |  |
| B2 |  |  |  | 72.1% |
| B3 | 2.04 nM | 42.9 nM | 66.3 nM |  |
| B4 |  |  |  | 80% |
| B5 | 3.7 nM | 120 nM | 263 nM | 76.3% |
| B6 | 1.33 nM | 61.1 nM | 114 nM |  |
| B7 |  |  |  | 91.3% |
| B8 |  |  |  | 67.7% |
| B9 | 5.88 nM | 16.8 nM | 27.6 nM |  |
| B10 |  |  |  | 83.2% |
| B11 |  |  |  | 73.1% |
| B12 |  |  |  | 58% |
| B13 |  |  |  | 84.8% |
| B14 | 447 nM |  |  | 75.7% |
| B15 |  |  |  | 85.7% |
| B16 | 6.74 nM | 162 nM | 857 nM | 86.9% |
| B17 |  |  |  | 78.5% |
| B18 |  |  |  | 51.1% |
| B19 |  |  |  | 86.5% |
| B20 |  |  |  | 94.3% |
| B21 | 123 nM | 451 nM |  | 72.4% |
| B22 | 2.19 nM | 317 nM | 545 nM | 74.9% |
| B23 | 1.89 nM | 57.1 nM | 121 nM | 93.1% |
| B24 | 1.92 nM | 28.4 nM | 63.2 nM | 86.5% |
| B25 |  |  |  | 65.1% |
| B26 |  |  |  | 101% |
| B27 | 13 nM | 34.6 nM | 139 nM |  |
| B28 |  |  |  | 65.5% |
| B29 | 1.64 nM | 6.12 nM | 18.9 nM | 76.3% |
